Substitutions are numbered along the chain they refer to.

Data set [1] deals with the molecule itself. Description: size exclusion chromatography (Superdex S200) of His-tagged CD5L from 293E supernatant. How it is done:
Recombinant protein CD5L monomer and homodimer was purified from the supernatant of 293E cells transfected with a CD5L expression vector. Recombinant mCD5L:p40 was recovered from the supernatant of 293E cells transfected with the CD5L:p40 expression vector. After harvesting transfected 293E cells by centrifugation, the protein was affinity purified from the supernatant using Ni Sepharose 6 Fast Flow resin (GE Healthcare). After binding the protein to resin, the resin was washed with 20 mM Tris, 0.3M NaCl, pH 8.0 and the protein eluted using 20 mM Tris, 0.3M NaCl, 0.4M Imidazole, pH 8.0. The protein was further polished by a […] sizing exclusion column (GE Healthcare) in buffer 10 mM NaHPO4, 0.15M NaCl, pH 7.2.

The target of data set [2] is T1, endogenous CD5L (mouse; in serum or secreted by bone marrow derived dendritic cells) (mouse, UniProt Q9QWK4 22-352).
T1 construct: also called natural CD5L; AIM
T1 sequence (looked up): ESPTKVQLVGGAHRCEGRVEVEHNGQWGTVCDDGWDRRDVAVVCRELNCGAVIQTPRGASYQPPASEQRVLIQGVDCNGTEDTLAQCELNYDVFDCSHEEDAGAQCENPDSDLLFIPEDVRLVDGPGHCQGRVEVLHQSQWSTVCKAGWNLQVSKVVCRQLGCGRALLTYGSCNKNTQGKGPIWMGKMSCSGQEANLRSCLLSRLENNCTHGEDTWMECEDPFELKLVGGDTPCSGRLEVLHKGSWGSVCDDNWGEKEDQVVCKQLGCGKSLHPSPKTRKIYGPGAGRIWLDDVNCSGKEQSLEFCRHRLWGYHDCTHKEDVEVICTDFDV
Description: sandwich ELISA on mouse serum, capture with anti-IL-12 p40, detection with anti-CD5L. The procedure:
Serum was collected kinetically from wildtype and Cd5l^{-/-} mice with DSS-induced colitis (2% DSS in drinking water for 6 days followed by 7 days of normal water) and the level of CD5L:p40 was measured using an ELISA assay. In the ELISA assay anti-IL-12 p40 was used to capture the heterodimer and enzyme linked anti-CD5L was used to detect the heterodimer.
Preliminary screens were conducted to determine what signals could induce CD5L homodimer and CD5L:p40 heterodimer. In particular, bone marrow derived dendritic cells were stimulated with TLR ligands for 24 hours and the supernatant was analyzed for CD5L:p40 secretion by ELISA.

B1: recombinant CD5L with His tag at C-terminus (mouse, mCD5L) (ligand)
chain: T1 sequence (looked up) with N176S
notes: Made by Biolegend in 293E cells; The transfection gave a monomer and a homodimer fraction on size exclusion; also called soluble CD5L; sCD5L; not shown: His tag at C-terminus
Regarding B1, the binding result in data set [1] is on record as “binds”.

B2: endogenous p40 (IL-12 p40, Il12b; mouse) (ligand, UniProt P43432 23-335, looked up)
chain: MWELEKDVYVVEVDWTPDAPGETVNLTCDTPEEDDITWTSDQRHGVIGSGKTLTITVKEFLDAGQYTCHKGGETLSHSHLLLHKKENGIWSTEILKNFKNKTFLKCEAPNYSGRFTCSWLVQRNMDLKFNIKSSSSSPDSRAVTCGMASLSAEKVTLDQRDYEKYSVSCQEDVTCPTAEETLPIELALEARQQNKYENYSTSFFIRDIIKPDPPKNLQMKPLKNSQVEVSWEYPDSWSTPHSYFSLKFFVRIQRKKEKMKETEEGCNQKGAFLVEKTSTEVQCKGGNVCVQAQDRYYNSSCSKWACVPCRVRS
notes: also called interleukin 12B
For B2, in data set [2], the binding result is on record as “binds”.

(Values after patent US20210317186A1 (BRIGHAM AND WOMEN S HOSPITAL, published 2021).)
